From publication PMC12432402 (2025)
Ends that are not written are not given here. * marks the point of attachment. FITC = O=C1OC2(c3ccc(O)cc3Oc3cc(O)ccc32)c2ccc(NC(=S)*)cc21

Target: ALFA‐tag binder 4A

{FITC}-SRLEEELRRRLTE [N‐terminally FITC‐labeled ALFA‐tag]
Kd: 222 µM
